The results in this text go back to the supplement of paper PMC9112550, “Optimization of the antimicrobial peptide Bac7 by deep mutational scanning” (BMC Biology, 2022).
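Also: peptides expressed intracellularly from a pBAD plasmid library in pooled LB shake-flask culture, induced with 0.3% L-arabinose, DNA abundance read by NGS, three biological replicates, DESeq2 with apeglm shrinkage.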

The test system of the data set is Escherichia coli TOP10. Put plainly: shrunken log2 fold change of peptide-encoding DNA abundance (4.5 h post-induction vs induction); higher = less antimicrobial activity (less host growth inhibition). The following applies: time post-induction: 4.5 h; library: site-saturation at positions 5, 18, 19, 20.
Take RRIRQRPPRLPRPRPRPVVTPRP: the “shrunken log2 fold change” value amounted to 0.219.
The same measure for RRIRSRPPRLPRPRPRPPDFPRP: 0.29.
Take RRIRLRPPRLPRPRPRPKFLPRP: the “shrunken log2 fold change” value is -0.173.
With RRIRRRPPRLPRPRPRPSCAPRP, the “shrunken log2 fold change” value turned out to be 0.452.
As to RRIRKRPPRLPRPRPRPAFKPRP, the “shrunken log2 fold change” value was -0.0132.
Turning to RRIRLRPPRLPRPRPRPKVMPRP, the “shrunken log2 fold change” value was -0.044.
The same measure for RRIRNRPPRLPRPRPRPTHHPRP: -0.0659.
Take RRIRIRPPRLPRPRPRPSHRPRP: the “shrunken log2 fold change” value is -0.276.
Take RRIRKRPPRLPRPRPRPFGKPRP: the “shrunken log2 fold change” value stood at 0.144.
The same measure for RRIRERPPRLPRPRPRPYREPRP: -0.00865; for RRIRMRPPRLPRPRPRPKMFPRP: 0.0019.
On to RRIRFRPPRLPRPRPRPTHHPRP, for which the “shrunken log2 fold change” value was determined as 0.781.
The same measure for RRIRWRPPRLPRPRPRPPPIPRP: 0.574; for RRIRTRPPRLPRPRPRPNWMPRP: 0.286; for RRIRQRPPRLPRPRPRPRQQPRP: -0.0145.
Turning to RRIRCRPPRLPRPRPRPHFSPRP, the “shrunken log2 fold change” value was -0.473.
Take RRIRWRPPRLPRPRPRPELRPRP: the “shrunken log2 fold change” value came to 0.0333.
The same measure for RRIRTRPPRLPRPRPRPAGLPRP: 0.0286; for RRIRIRPPRLPRPRPRPDGGPRP: -0.446.
Take RRIRHRPPRLPRPRPRPTWNPRP: the “shrunken log2 fold change” value is -0.267.
Take RRIRFRPPRLPRPRPRPHKGPRP: the “shrunken log2 fold change” value was -0.0598.
The same measure for RRIRPRPPRLPRPRPRPMDIPRP: -0.158.
Regarding RRIRCRPPRLPRPRPRPMWAPRP, the “shrunken log2 fold change” value turned out to be 0.378.
As for RRIRWRPPRLPRPRPRPAVWPRP, the “shrunken log2 fold change” value was determined as 0.32.
RRIRFRPPRLPRPRPRPNYGPRP: the “shrunken log2 fold change” value was -0.125.
Regarding RRIRTRPPRLPRPRPRPPACPRP, the “shrunken log2 fold change” value stood at 0.313.
For the sequence RRIRQRPPRLPRPRPRPCGGPRP, the “shrunken log2 fold change” value was 0.257.
Take RRIRCRPPRLPRPRPRPWGCPRP: the “shrunken log2 fold change” value is -0.00936.
For RRIRVRPPRLPRPRPRPVGVPRP, the “shrunken log2 fold change” value was 0.321.
Consider RRIRTRPPRLPRPRPRPFTCPRP, for which the “shrunken log2 fold change” value was 0.0121.
Take RRIRTRPPRLPRPRPRPVTFPRP: the “shrunken log2 fold change” value was -0.0266.
In the case of RRIRLRPPRLPRPRPRPAYPPRP, the “shrunken log2 fold change” value is 0.283.
On to RRIRFRPPRLPRPRPRPIKQPRP, for which the “shrunken log2 fold change” value is -0.0488.
As for RRIRFRPPRLPRPRPRPCYSPRP, the “shrunken log2 fold change” value stood at 0.019.
For RRIRDRPPRLPRPRPRPIPMPRP, the “shrunken log2 fold change” value is -0.00947.
On to RRIRRRPPRLPRPRPRPHRAPRP, for which the “shrunken log2 fold change” value was 0.243.
With RRIRMRPPRLPRPRPRPWRAPRP, the “shrunken log2 fold change” value came out at 0.595.
The same measure for RRIRVRPPRLPRPRPRPMKMPRP: -0.0573; for RRIRYRPPRLPRPRPRPKCHPRP: -0.139.
For RRIRMRPPRLPRPRPRPEIMPRP, the “shrunken log2 fold change” value was found to be 2.57.
Consider RRIRIRPPRLPRPRPRPVHKPRP, for which the “shrunken log2 fold change” value was -0.442.
The same measure for RRIRDRPPRLPRPRPRPEKEPRP: 0.127.
With RRIRWRPPRLPRPRPRPDSLPRP, the “shrunken log2 fold change” value was -0.12.
On to RRIRIRPPRLPRPRPRPGALPRP, for which the “shrunken log2 fold change” value is -0.111.
The same measure for RRIRARPPRLPRPRPRPGLTPRP: 0.686; for RRIRTRPPRLPRPRPRPNACPRP: -0.0597.
Regarding RRIRARPPRLPRPRPRPRRYPRP, the “shrunken log2 fold change” value turned out to be 0.255.
RRIRGRPPRLPRPRPRPHRGPRP: the “shrunken log2 fold change” value is 0.0302.
For the sequence RRIRERPPRLPRPRPRPYSKPRP, the “shrunken log2 fold change” value was -0.464.
For RRIRRRPPRLPRPRPRPTYKPRP, the “shrunken log2 fold change” value was -0.163.
